{
  "source": "a protein production outcome set (Wang et al. 2014)",
  "assay": "label from the status in PepcDB records",
  "data": [
    {"sequence": "MEKKVHYKMYKAGKKWVFVMLSTVALTGIMVMSGNIAKADAVAQSSTEQVAKIDTTSATTTSTQATAQVEKATNNVNESNAAQTSATTTTEQSSVNAGATSSSQNNKQATTTSVAASQNTSVANKDQVSSTQSSTTQNSEEPKVETPVNTADNASQKNVNGNWYLVDNNTGKNLTGFQEIKYQNKVVYYAPSNAQMQYGWQDINNNRYYFDTFDGAMTTGQKNINGNWYMFDAQGVLQTGFQRIESQNKTVYYSEDKDKLGQMQYGQKNIKGNWYNFDTYDGAMKTGFVTIPSQNKTVYYSEDKAKLGQMQYGKTKVNGKTYYFDTYDGAMKKGLTNINGNYYYFDNSGVMATNQKNINGNWYMFNDQGIMQTGFVHIPSQGKTVYYSKDKDKLGQMLYGQKNINGRWYNFDTYDGAMKTGFVYIPSQNKTVYYDENQSTLGQMKYGFQNINGKTYYLDTFDGSMKTGQKNINGNWYMFDDKGVMKVGFVTIPSQNKTVYYSEDKAKLGQMQYGKTGIKGKTYYFDTFDGAMKTGVFYNKETGTLQYYGNNGQMNYGNVVINGKVYAFDAAGNYLGKGNVTIDGHDYYLGNNNQVLVGFQKISNNTYYYNKDNGQKEYGQKNIDGSWYMFDDKTGIMKTGFVTIPSQNKTVYYGNNGQMQYGQRNIDGHWYMFDTYNGAMKTGLVYIPEQNKTVYYGSNGQMQYGVFRVGKITYTADHISGAIIGVYNDAEVIGQNPELPTGCEITAVTMMLRYAGANINKIQLANEMPRSNNGDYGFVGNPFSVTGWWVFPTGVAPVVNKHLGHSQVMTGASLESIKNKLLNGHLVVAWVANMNGFVNHAIALTGYNGNTLYYNNPWTARKESMSVSSFYTHWNADKQRALSY", "values": [
      {"measurement": "protein production", "result": "failed"}
    ]},
    {"sequence": "MKLLAITSCPNGIAHTYMAAENLQKAADRMGVQMKVETQGGIGVENELTEQEIREADAIIIAADRSVNKDRFIGKKLLAVGVQEGIRKPEELIQKAIGGDIPVYRSAVKTEASAQTEKKQNPIYRHLMNGVSFMVPFIVVGGLLIAVALTLGGEKTPKGLVIPDDSFWKTIEQIGAASFSFMIPILAGYIAYSIADKPGLVPGMIGGYIAATGSFYGSGSGAGFLGGIIAGFLAGYAALAIKKLKVPKAIQPIMPIIVIPVVSSLIVGLAFVLLIGAPVAQIFESLTVWLAGMQGSSSILLALILGAMISFDMGGPVNKVAFLFGSAMIGEGNYEIMGPIAVAICIPPIGLGIATFLGKRKFQAQEREMGKAAFTMGLFGITEGAIPFAAQDPLRVIPSIMAGSMTGSVIAMIGNVGDRVAHGGPIVAVLGAVDHVLMFFIAVIAGSLVTSLLVNVLKKEVTAAPAGISEAAAGNDIPQPNIEIEAESKKIEKPEITKLTDIIDTDLIEPHLSGDTRDDIIDEMIQKLSRKGVLHSESEFKQAIINRELEGTTAIGMNIAIPHGKSDAVKKPSVAFGIKRSGVDWRSLDGTDAKLIFMIAVPKESGGNEHLKLLQMLSRKLMDDTYRDKLLSAQTKEEAYKLLDEII", "values": [
      {"measurement": "protein production", "result": "failed"}
    ]},
    {"sequence": "MNRVFKKNSVFAIIFAACSWGGFLDRAYAEACPSEDFSKFLTVFSATPEVQQRFTAVKVQALVLKPAKQTDRFEPQTTDVANASLAYPLMGPIISDKTDGVQIEAVDDRHVRVIDKRAGHSDIKVFNFSRQTCWVLAGMEDWSISEKDLSAAVQPKMNRSESLCFQRGRAYAGLGGVEQYPLTAEFFEAALENYVCAAASGDPQASLNAASLSLSGMAPQLETEKVEALFKAASTTLADGAAGLSSFYCYGNNVAADGPCQHPEQAEKELVRAVSMGSSDATNYLGYTLETGELRTTDLDRAIACYRLAASMGNQTAADNLKRLSKQATDVSTAGHCY", "values": [
      {"measurement": "protein production", "result": "failed"}
    ]},
    {"sequence": "MKKKLFSPIWLLPIVALALGAWLGIKSIKESGVEIQIHFPSATGIDVGKTLVKYQGLTVGKVKDIGIDDDLKGVNVKVMMDYRAKPFLNKETLFWLVTPKASITGVEGLDALFSGNYIAIQPGKGNAATFFEAERQPPPMQIGSEGVMIELTADKLGSLDVGSPVFFRQIPVGSVVSYRLDGNARVIISAFIQEQYARLVKKNSHFWNVSGVKVDASLAGIKVNTESLASILAGGVSFSSDEKAAAAQNGDSFALYDSETSALGGVEVSLTMNDGNGIDKGTRIVYRGISVGSIQSKNLTTTGVTAIAKFEPEYANLLTSDGRFWLEGADISLSGIKNPERLLTGSVINFLPGTNANTALPSSFALQSSAPDLLQAKKRLLTITSAENMGLTAGAEVRYKQLPIGQVLAVKLTKDLSAVEYQLELQPEFASLVRSDSYFIPESALSVDASIEGVSVKTRDLATLTKGAVSLIPGSNNTPVAANARLSLFSSVEEAKQFFERQQRLYFTLTSQDGADVSQGSPIYYKKMQIGRVESVNWQSKTEDFAIKIAIDKQFQPLMQKPKVFWRNSALDVSASLAGIDVAVAPLQGALKGSISLGLLENPLADPTASLKLYENKQLALAQAQAIRLTLSASAKLAAKAAIRYQGHQVGEVTQVKLNADLNTLSATAYLYGEYADHFSSSDAEYHMVEAQISLAGIKAPETLITGPYIGVLPGKSKQKATQFQAKLVESSYANVAEDALKFTLEDSNLGSMKVGTPIFFRGLKVGQIDGYSLSSQGNSVLMQAHIEPQYRHLVNKTSQFWDASGIKVDVGIFSGAQIEAGSLETLLAGGINVATKETTQANNRLSQGAVITLQHKAQTEWQEWAPAQ", "values": [
      {"measurement": "protein production", "result": "failed"}
    ]},
    {"sequence": "MKRLEVSNQAKLPTQFGEFYIQCFREKGSNGSKDHLVVFTPNFSQNPLVRLHSECLTGDALGSQKCDCGGALQMALERISKEGGLVIYLRQEGRGIGLFNKVNAYALQDKGYDTIQANEMIGFKDDERDYSVAGEILEYYRIKKMRLLTNNPKKIAALEKYAEVTRESLIVCANEHNQGYLEVKKLKMGHLL", "values": [
      {"measurement": "protein production", "result": "failed"}
    ]},
    {"sequence": "MYQKFKGGDLMIHGGDIYTEGVFKGRELLDYSSNINPLGIPKSFLNNIDEGIKNLGVYPDVNYRRLNKSIENYLKLKDIGIVLGNGASEIIELSISLFEKILIIVPSYAEYEINAKKHGVSVVFSYLDENMCIDYEDIISKIDDVDSVIIGNPNNPNGGLINKEKFIHVLKLAEEKKKTIIIDEAFIEFTGDPSSSFVGEIKNYSCLFIIRAMTKFFAMPGIRFGYGITNNKEIAAKIKAKQNPWNINCFAEMAAINCLKDTNYIEESLLWIKKERKRFIEELNKIGFIKRVFSPHANFVLCRLENISGEKLYDSLLKEDIVIRRCCNFIGLDDSFVRFAIKDEKKNTKFLRALKGVENNL", "values": [
      {"measurement": "protein production", "result": "not failed"}
    ]},
    {"sequence": "MNAKRWVALGIVFALLIVSALAKFTSSQIASTEESSPTFVESLFADTGELTETVIEEGGDDTIAVLSVDGTIQDTGDSGSLFGDAGYDHSFFMQQLEQVRNDDYIQGVLLYVNSPGGGVMESAQIRDKILQIQKERNIPFYVSMGSMAASGGYYISAPADKIFASKETLTGSLGVIMQGYDYSELMKKLGVSDNTIKSGEYKDIMSGTRPMTEDEKKIMQSMIDDSYNEFVKVVAKGRGMSAEKVRKIADGRIYDGRQAKENGLIDEFGYQEDALEALKKEQGLADATVIQYDVPEDFSSLFSVAAQKISGQNADISQLIKLTGTLKAPRMMYLYGE", "values": [
      {"measurement": "protein production", "result": "failed"}
    ]},
    {"sequence": "MKSFVATVLVALLFIVALVFGARNEQVVTISYFVAQGEYRLPVVLAVVFFTGFMLSWLVASYYIVRLKLALAATRKKLTLQTAKKPQGVDA", "values": [
      {"measurement": "protein production", "result": "failed"}
    ]},
    {"sequence": "MRRHTSSLDDQSLWRVALDYARDAAVIIDDGGHICYVNQAAERIWGIGRADLVGSHSDCLGVDAIQPEPVAGSHLTNAASDLPLAIDITSRDNRSITAELTRSTIRVDGLNYTMLTVRDVT", "values": [
      {"measurement": "protein production", "result": "failed"}
    ]},
    {"sequence": "MTPPIAADYTAQAVSTDTIGYLHSTESGAGVDGPGMRFVFFVSGCQFRCLYCHNPDTWKLHNGRQVSVEQALSEVAPYARFLKFAGGVTISGGEPLMQHEFVGELFHEIKQRFGLHTALDTQGFLHERVSDAWFDDVDLVMLDIKHSDPEKYQALTGQPLQPTLDFALRLKRLRKKMWIRYVLVPGLTDGDADIEKLADFAASLGDVVERVEVLPFHQLGKDKWAQLGMEYQLNDTPIPTAEQAAHARALFASRGLKVTLEHHHHHH", "values": [
      {"measurement": "protein production", "result": "not failed"}
    ]},
    {"sequence": "MTRPIFYDPTGRRSLLAKRSLAVVFLAVILAALAFATTLVAVPRQRALSLPQPHFEAASLHRGHGLSRLRSWLPRLHLQRSQEALAIGFYQPRSDASFQSLSRHGNQLDWVVPALLNVAGPEHRLAVSNDPRFDSFVAAGHHHYKVLPMVQNVGGDGWDGANVARILENATERHALERQLADYVARRGDAGLVLDFEDLPATAMRPYVAFLRETNALLPAGAQLAVTAPAGEDDWPIAALGRAADKVILMAYDEHWQNGAAGPIASQTWFTNEVEKSARALPADRLVIALGSYGYDWHQGGTDALSLSDAWLAAHDSHAPIIFDKASGNAGFAYEQDGVSHTVWMLDAATDWNEMLAVQRLGIGNLALWRLGTEDPGFWNDLAALRSGKAPDLSRLVSEGGNDVEGTGEILRITATPVAGSRTVAFGDQHLIRDERYGDLPTPFVVRRTGAANPKLLALTFDDGPDPKWTPKVLSTLEAAHVPATFFVIGENALVRPDLLRRMVADGDEIGNHTYTHPNLAGSSEAETRLEINATQRLVQAYTGRSMTLFRAPYFGDAEPTTADELQPALRAQQAGYTIVGLHVDPNDWQNPGTDEIVRQVVNQIHNATEQSSSNVILLHDGGGDRSQTVAALPRIVAVLRAEGYSFVTASQLVGIPPQAAMPRLSSSDLAAVRVDVAAFLALDGLVTLFSWLFFVAIALGIARAVIMAGLAWWQSRSPRAEPPAFEPTVSVIIPAWNEERVIAASVERVLASDYPALQVIVADDGSKDATSAVVARHFGHDPRVTLLTLANGGKAAALNRALRHATGEVVIALDADTQFEPLTIRRLARWFADPRIGAVAGDARVGNRVNLVTRWQAVEYITAQNLERRALAGFDAMTVVPGAVGAWRRAALDSVGGYPENTLAEDQDLTIAIQRKGWRVTYDPRAVAWTEAPQTFRALARQRYRWAFGTLQCLWKHRKVITSRKPAGLGLVGLPQAWLFQIAFAAISPLIDGALIASIISTVVRVVQHGWAQTQGDLGRMAIYWSLFTAIDVICGWIAYRLDDKRPPYPAHLLVAQRIVYRQIMYWVVLRALASAIGGWIVGWGKLERTGTVSPAPERA", "values": [
      {"measurement": "protein production", "result": "failed"}
    ]},
    {"sequence": "KLFPRLFGLYRHVADLYQKMKALHPIMNDTLNRQAERWGLGKIYLSEEEFCQSEEKEKIRMLQSDFYDRMWYRLDFRGKLGSAKSFQCYYFFFRHS", "values": [
      {"measurement": "protein production", "result": "failed"}
    ]},
    {"sequence": "MWAGMYPSQPDQVKSKPTYILNYFINPMTGSDILGLLMVYVYVAVLLLVSERFLGDRPNLSRKFVHIMVGNILFILPLFESRLVITFLAAAPFILITFLLSPYSPLRVKHRASSYGHGLGLVYYSISWTILAYLFFEAPWITGIGIAAMSYGDGFASLTGERFGRTTFSVLGDKKSLEGSLGMFIILLVMLPVVLTYYSQGFTPYLILGVALVSTVLEALTPRGLDNLTACFGAVAAYILLGGMGI", "values": [
      {"measurement": "protein production", "result": "failed"}
    ]},
    {"sequence": "INKLYAINANLEESELRFRSAFNSAAIGMAIVSLEGMWLKVNQSLCQIVGYSEEELLETNFQSITHPEDLELDLGYVRQLLEGDIRFYHMEKRYIHKNGSVIWILLSASLIRDLDNKPLYFISQIQNID", "values": [
      {"measurement": "protein production", "result": "failed"}
    ]},
    {"sequence": "LAPGLHFIATPIGAARDITLRALDILRAADVLAAEDTRTLRHLMEIHGIPLGGRPLVAYHDHNGEAARPRLLRALAEGRSVAYASEAGTPLVADPGFQLGRAAIAAGHPVLAAPGPS", "values": [
      {"measurement": "protein production", "result": "failed"}
    ]},
    {"sequence": "MPLKSLKNRLNQHFDLSPRYGSVKKIMPNIVYADGFNPSVGDVVKIEKSDGSECVGMVVVAEKEQFGFTPFNFIEGARAGDKVLFLKEGLNFPVGRNLLGRVLNPLGQVIDNKGALDYERLAPVITTPIAPLKRGLIDEIFSVGVKSIDGLLTCGKGQKLGIFAGSGVGKSTLMGMITRGCLAPIKVIALIGERGREIPEFIEKNLKGDLSSCVLVVATSDDSPLMRKYGAFCAMSVAEYFKNQGLDVLFIMDSVTRFAMAQREIGLALGEPPTSKGYPPSALSLLPQLMERAGKEENKGSITAFFSVLVEGDDLSDPIADQTRSILDGHIVLSRELTDYGIYPPINILNSASRVAKDIISESQNLCARKFRRLYALLKENEMLIRIGSYQMGNDKELDEAIKKKALMEQFLAQDENALQPFETSFQQLEEILR", "values": [
      {"measurement": "protein production", "result": "failed"}
    ]}
  ]
}
